Laboratory results: patent US20210246166A1 (Bayer, published 2021)
Numbered stars: 1 amine (or outer) side, 2 acyl side, 3 side chain; on linkers, the order of the positions; unused ones are H or OH. Bridge positions count the residues as written; N and C are the ends. Square brackets hold non-standard residues; d marks the D form. Ends that are not written are not given here. X3 = (1R,3S)‑3‑(Amino)cyclopentanecarboxylic acid, O=C([C@@H]1CC[C@H](N[*:1])C1)[*:2]; X4 = (1S,3R)‑3‑(Amino)cyclopentanecarboxylic acid, O=C([C@H]1CC[C@@H](N[*:1])C1)[*:2]; X9 = (S)‑3‑(1-Pyrrolidine-2-yl)‑propionic acid, O=C(CC[C@@H]1CCCN1[*:1])[*:2]; X8 = (R)‑4‑Amino‑6‑methylheptanoic acid, CC(C)C[C@@H](CCC(=O)[*:2])N[*:1]; X6 = (S)‑(1-Piperidin-3-yl)‑acetic acid, O=C(C[C@@H]1CCCN([*:1])C1)[*:2]; Oic = O=C(O)[C@@H]1C[C@@H]2CCCC[C@@H]2N1; βPro(3S) = O=C([C@H]1CCN([*:1])C1)[*:2]; tBuAla = CC(C)(C)C[C@H](N)C(=O)O; Cba = N[C@@H](CC1CCC1)C(=O)O; Pen = CC(C)(S)[C@H](N)C(=O)O; β3hP = O=C(O)C[C@@H]1CCCN1; NMeC = CN[C@@H](CS)C(=O)O; Orn = NCCC[C@H](N)C(=O)O; Nva = CCC[C@H](N)C(=O)O; Sar = CNCC(=O)O

T1: recombinant human MASP1 active protease (amino acids 297-699, C-terminal His Tag) (human, UniProt P48740 297-699)
T1 sequence: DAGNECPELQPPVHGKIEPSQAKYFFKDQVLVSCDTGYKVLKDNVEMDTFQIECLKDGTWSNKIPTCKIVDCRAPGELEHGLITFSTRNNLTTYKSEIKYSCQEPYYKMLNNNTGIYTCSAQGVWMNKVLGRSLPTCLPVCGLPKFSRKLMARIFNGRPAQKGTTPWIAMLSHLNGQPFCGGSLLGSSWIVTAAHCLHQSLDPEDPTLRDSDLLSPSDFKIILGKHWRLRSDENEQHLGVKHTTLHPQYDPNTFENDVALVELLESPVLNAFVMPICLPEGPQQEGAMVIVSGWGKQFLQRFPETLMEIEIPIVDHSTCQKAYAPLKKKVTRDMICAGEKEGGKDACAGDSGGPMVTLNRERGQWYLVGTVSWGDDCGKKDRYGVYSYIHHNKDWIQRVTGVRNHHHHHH

T2: recombinant human MASP1 active protease (amino acids 297-699, C-terminal His Tag) (human, UniProt P48740 297-699)
T2 sequence: T1 sequence

B1: Example 453: ((N-Me)G)-IC+SRSLP-(Oic)-I-(Pen)+IP-((S)-3-(1-Pyrrolidine-2-yl)-propionic acid)-OH (peptide)
peptide: [Sar]ICSRSLP[Oic]I[Pen]IP[X9]-OH
modifications: disulfide 3-11; N-terminus assumed
SMILES: CC[C@H](C)[C@H](NC(=O)CNC)C(=O)N[C@H]1CSSC(C)(C)[C@@H](C(=O)N[C@H](C(=O)N2CCC[C@H]2C(=O)N2CCC[C@H]2CCC(=O)O)[C@@H](C)CC)NC(=O)[C@H]([C@@H](C)CC)NC(=O)[C@@H]2C[C@@H]3CCCC[C@@H]3N2C(=O)[C@@H]2CCCN2C(=O)[C@H](CC(C)C)NC(=O)[C@H](CO)NC(=O)[C@H](CCCNC(=N)N)NC(=O)[C@H](CO)NC1=O
B2: Example 454: ((N-Me)G)-IC+SRSLP-(Oic)-I-(Pen)+IPN-OH (peptide)
peptide: [Sar]ICSRSLP[Oic]I[Pen]IPN-OH
modifications: disulfide 3-11; N-terminus assumed
SMILES: CC[C@H](C)[C@H](NC(=O)CNC)C(=O)N[C@H]1CSSC(C)(C)[C@@H](C(=O)N[C@H](C(=O)N2CCC[C@H]2C(=O)N[C@@H](CC(N)=O)C(=O)O)[C@@H](C)CC)NC(=O)[C@H]([C@@H](C)CC)NC(=O)[C@@H]2C[C@@H]3CCCC[C@@H]3N2C(=O)[C@@H]2CCCN2C(=O)[C@H](CC(C)C)NC(=O)[C@H](CO)NC(=O)[C@H](CCCNC(=N)N)NC(=O)[C@H](CO)NC1=O
B3: Example 448: ((N-Me)G)-IC+RRS-((tBu)A)-PP-(Nva)-(Pen)+IP-NH2 (peptide)
peptide: [Sar]ICRRS[tBuAla]PP[Nva][Pen]IP-NH2
modifications: disulfide 3-11; N-terminus assumed
SMILES: CCC[C@@H]1NC(=O)[C@@H]2CCCN2C(=O)[C@@H]2CCCN2C(=O)[C@H](CC(C)(C)C)NC(=O)[C@H](CO)NC(=O)[C@H](CCCNC(=N)N)NC(=O)[C@H](CCCNC(=N)N)NC(=O)[C@@H](NC(=O)[C@@H](NC(=O)CNC)[C@@H](C)CC)CSSC(C)(C)[C@@H](C(=O)N[C@H](C(=O)N2CCC[C@H]2C(N)=O)[C@@H](C)CC)NC1=O
B4: Example 455: ((N-Me)G)-IC+SRSLP-(Oic)-I-(Pen)+IP-(beta-homo-P)-OH (peptide)
peptide: [Sar]ICSRSLP[Oic]I[Pen]IP[β3hP]-OH
modifications: disulfide 3-11; N-terminus assumed
SMILES: CC[C@H](C)[C@H](NC(=O)CNC)C(=O)N[C@H]1CSSC(C)(C)[C@@H](C(=O)N[C@H](C(=O)N2CCC[C@H]2C(=O)N2CCC[C@H]2CC(=O)O)[C@@H](C)CC)NC(=O)[C@H]([C@@H](C)CC)NC(=O)[C@@H]2C[C@@H]3CCCC[C@@H]3N2C(=O)[C@@H]2CCCN2C(=O)[C@H](CC(C)C)NC(=O)[C@H](CO)NC(=O)[C@H](CCCNC(=N)N)NC(=O)[C@H](CO)NC1=O
B5: Example 450: ((N-Me)G)-IC+SRSLP-(Oic)-I-(Pen)+IP-((R)-4-Amino-6-methylheptanoic acid)-OH (peptide)
peptide: [Sar]ICSRSLP[Oic]I[Pen]IP[X8]-OH
modifications: disulfide 3-11; N-terminus assumed
SMILES: CC[C@H](C)[C@H](NC(=O)CNC)C(=O)N[C@H]1CSSC(C)(C)[C@@H](C(=O)N[C@H](C(=O)N2CCC[C@H]2C(=O)N[C@H](CCC(=O)O)CC(C)C)[C@@H](C)CC)NC(=O)[C@H]([C@@H](C)CC)NC(=O)[C@@H]2C[C@@H]3CCCC[C@@H]3N2C(=O)[C@@H]2CCCN2C(=O)[C@H](CC(C)C)NC(=O)[C@H](CO)NC(=O)[C@H](CCCNC(=N)N)NC(=O)[C@H](CO)NC1=O
B6: Example 456: ((N-Me)G)-IC+SRSLP-(Oic)-I-(Pen)+IP-((S)-Pyrrolidine-3-carboxylic acid)-OH (peptide)
peptide: [Sar]ICSRSLP[Oic]I[Pen]IP[βPro(3S)]-OH
modifications: disulfide 3-11; N-terminus assumed
SMILES: CC[C@H](C)[C@H](NC(=O)CNC)C(=O)N[C@H]1CSSC(C)(C)[C@@H](C(=O)N[C@H](C(=O)N2CCC[C@H]2C(=O)N2CC[C@H](C(=O)O)C2)[C@@H](C)CC)NC(=O)[C@H]([C@@H](C)CC)NC(=O)[C@@H]2C[C@@H]3CCCC[C@@H]3N2C(=O)[C@@H]2CCCN2C(=O)[C@H](CC(C)C)NC(=O)[C@H](CO)NC(=O)[C@H](CCCNC(=N)N)NC(=O)[C@H](CO)NC1=O
B7: Example 449: ((N-Me)G)-IC+SRSLP-(Oic)-I-(Pen)+IP-((1R,3S)-3-(Amino)cyclopentanecarboxylic acid)-OH (peptide)
peptide: [Sar]ICSRSLP[Oic]I[Pen]IP[X3]-OH
modifications: disulfide 3-11; N-terminus assumed
SMILES: CC[C@H](C)[C@H](NC(=O)CNC)C(=O)N[C@H]1CSSC(C)(C)[C@@H](C(=O)N[C@H](C(=O)N2CCC[C@H]2C(=O)N[C@H]2CC[C@@H](C(=O)O)C2)[C@@H](C)CC)NC(=O)[C@H]([C@@H](C)CC)NC(=O)[C@@H]2C[C@@H]3CCCC[C@@H]3N2C(=O)[C@@H]2CCCN2C(=O)[C@H](CC(C)C)NC(=O)[C@H](CO)NC(=O)[C@H](CCCNC(=N)N)NC(=O)[C@H](CO)NC1=O
B8: Example 452: ((N-Me)G)-IC+SRSLP-(Oic)-I-(Pen)+IP-((1S,3R)-3-(Amino)cyclopentanecarboxylic acid)-OH (peptide)
peptide: [Sar]ICSRSLP[Oic]I[Pen]IP[X4]-OH
modifications: disulfide 3-11; N-terminus assumed
SMILES: CC[C@H](C)[C@H](NC(=O)CNC)C(=O)N[C@H]1CSSC(C)(C)[C@@H](C(=O)N[C@H](C(=O)N2CCC[C@H]2C(=O)N[C@@H]2CC[C@H](C(=O)O)C2)[C@@H](C)CC)NC(=O)[C@H]([C@@H](C)CC)NC(=O)[C@@H]2C[C@@H]3CCCC[C@@H]3N2C(=O)[C@@H]2CCCN2C(=O)[C@H](CC(C)C)NC(=O)[C@H](CO)NC(=O)[C@H](CCCNC(=N)N)NC(=O)[C@H](CO)NC1=O
B9: Example 451: ((N-Me)G)-IC+SRSLP-(Oic)-I-(Pen)+IP-((S)-(1-Piperidin-3-yl)-acetic acid)-OH (peptide)
peptide: [Sar]ICSRSLP[Oic]I[Pen]IP[X6]-OH
modifications: disulfide 3-11; N-terminus assumed
SMILES: CC[C@H](C)[C@H](NC(=O)CNC)C(=O)N[C@H]1CSSC(C)(C)[C@@H](C(=O)N[C@H](C(=O)N2CCC[C@H]2C(=O)N2CCC[C@@H](CC(=O)O)C2)[C@@H](C)CC)NC(=O)[C@H]([C@@H](C)CC)NC(=O)[C@@H]2C[C@@H]3CCCC[C@@H]3N2C(=O)[C@@H]2CCCN2C(=O)[C@H](CC(C)C)NC(=O)[C@H](CO)NC(=O)[C@H](CCCNC(=N)N)NC(=O)[C@H](CO)NC1=O
B10: AIC+SRS-((tBu)A)-PPI-((N-Me)C)+IPD-NH2 (peptide)
peptide: AICSRS[tBuAla]PPI[NMeC]IPD-NH2
modifications: disulfide 3-11; N-terminus assumed
SMILES: CC[C@H](C)[C@H](NC(=O)[C@H](C)N)C(=O)N[C@H]1CSSC[C@@H](C(=O)N[C@H](C(=O)N2CCC[C@H]2C(=O)N[C@@H](CC(=O)O)C(N)=O)[C@@H](C)CC)N(C)C(=O)[C@H]([C@@H](C)CC)NC(=O)[C@@H]2CCCN2C(=O)[C@@H]2CCCN2C(=O)[C@H](CC(C)(C)C)NC(=O)[C@H](CO)NC(=O)[C@H](CCCNC(=N)N)NC(=O)[C@H](CO)NC1=O
B11: A-(Cba)-C+SRS-((tBu)A)-PPI-(Pen)+IPD-NH2 (peptide)
peptide: A[Cba]CSRS[tBuAla]PPI[Pen]IPD-NH2
modifications: disulfide 3-11; N-terminus assumed
SMILES: CC[C@H](C)[C@@H]1NC(=O)[C@@H]2CCCN2C(=O)[C@@H]2CCCN2C(=O)[C@H](CC(C)(C)C)NC(=O)[C@H](CO)NC(=O)[C@H](CCCNC(=N)N)NC(=O)[C@H](CO)NC(=O)[C@@H](NC(=O)[C@H](CC2CCC2)NC(=O)[C@H](C)N)CSSC(C)(C)[C@@H](C(=O)N[C@H](C(=O)N2CCC[C@H]2C(=O)N[C@@H](CC(=O)O)C(N)=O)[C@@H](C)CC)NC1=O
B12: TIC+SRS-((tBu)A)-PPI-((N-Me)C)+I-NH2 (peptide)
peptide: TICSRS[tBuAla]PPI[NMeC]I-NH2
modifications: disulfide 3-11; N-terminus assumed
SMILES: CC[C@H](C)[C@H](NC(=O)[C@@H]1CSSC[C@H](NC(=O)[C@@H](NC(=O)[C@@H](N)[C@@H](C)O)[C@@H](C)CC)C(=O)N[C@@H](CO)C(=O)N[C@@H](CCCNC(=N)N)C(=O)N[C@@H](CO)C(=O)N[C@@H](CC(C)(C)C)C(=O)N2CCC[C@H]2C(=O)N2CCC[C@H]2C(=O)N[C@@H]([C@@H](C)CC)C(=O)N1C)C(N)=O
B13: (Orn)-IC+SRSLP-(Oic)-I-(Pen)+IPD-NH2 (peptide)
peptide: [Orn]ICSRSLP[Oic]I[Pen]IPD-NH2
modifications: disulfide 3-11; N-terminus assumed
SMILES: CC[C@H](C)[C@H](NC(=O)[C@@H](N)CCCN)C(=O)N[C@H]1CSSC(C)(C)[C@@H](C(=O)N[C@H](C(=O)N2CCC[C@H]2C(=O)N[C@@H](CC(=O)O)C(N)=O)[C@@H](C)CC)NC(=O)[C@H]([C@@H](C)CC)NC(=O)[C@@H]2C[C@@H]3CCCC[C@@H]3N2C(=O)[C@@H]2CCCN2C(=O)[C@H](CC(C)C)NC(=O)[C@H](CO)NC(=O)[C@H](CCCNC(=N)N)NC(=O)[C@H](CO)NC1=O

The binders below were run against T1, recombinant human MASP1 active protease … (assay: cell-based or functional assay).

Binder | human MASP1 IC50 [nM]
B1 | 2.5
B2 | 2
B3 | 440
B4 | 2.9
B5 | 5.8
B6 | 1.9
B7 | 1.8
B8 | 2
B9 | 2.6

Each binder was assayed against recombinant human MASP2 active protease (amino acids 297-686, C-terminal His Tag) (human, UniProt O00187 297-686) (assay: cell-based or functional assay).
Target sequence in this assay (O00187 other isoform, or with tags, fused parts or gaps limits assumed): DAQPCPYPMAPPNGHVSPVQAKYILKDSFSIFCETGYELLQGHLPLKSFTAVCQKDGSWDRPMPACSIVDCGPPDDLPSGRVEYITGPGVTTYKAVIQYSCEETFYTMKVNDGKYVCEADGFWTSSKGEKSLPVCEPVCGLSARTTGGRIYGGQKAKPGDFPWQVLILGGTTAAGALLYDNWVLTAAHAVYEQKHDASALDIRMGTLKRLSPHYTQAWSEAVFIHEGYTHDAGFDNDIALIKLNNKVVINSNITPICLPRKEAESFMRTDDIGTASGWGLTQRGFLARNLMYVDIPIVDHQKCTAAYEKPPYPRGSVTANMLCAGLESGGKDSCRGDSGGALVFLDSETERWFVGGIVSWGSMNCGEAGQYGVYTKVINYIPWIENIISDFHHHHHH

Binder | human MASP2 IC50 [nM]
B1 | 56
B2 | 99
B3 | 1000
B4 | 85
B5 | 230
B6 | 110
B7 | 93
B8 | 100
B9 | 61

Molecular target: recombinant human MASP2 active protease (amino acids 297-686, C-terminal His Tag) (human, UniProt O00187 297-686)
Experiment: cell-based or functional assay
Remark: another data set of the same source
Target sequence in this assay (O00187 other isoform, or with tags, fused parts or gaps limits assumed): as above

Binder | human MASP2 IC50 [nM]
B10 | 225
B11 | 24
B12 | 80
B13 | 76

These binders were tested against T2, recombinant human MASP1 active protease … (assay: cell-based or functional assay).

Binder | human MASP1 IC50 [nM]
B10 | 1.95
B11 | 2
B12 | 2
B13 | 2
